From paper doi:10.1101/2020.01.07.897124 (bioRxiv, 2020)
Read-outs that look alike come from different tables or passages of the source.

B1: human SOAT1 full-length (1-550), purified, tags removed (enzyme, UniProt P35610 1-550, looked up)
chain: MVGEEKMSLRNRLSKSRENPEEDEDQRNPAKESLETPSNGRIDIKQLIAKKIKLTAEAEELKPFFMKEVGSHFDDFVTNLIEKSASLDNGGCALTTFSVLEGEKNNHRAKDLRAPPEQGKIFIARRSLLDELLEVDHIRTIYHMFIALLILFILSTLVVDYIDEGRLVLEFSLLSYAFGKFPTVVWTWWIMFLSTFSVPYFLFQHWATGYSKSSHPLIRSLFHGFLFMIFQIGVLGFGPTYVVLAYTLPPASRFIIIFEQIRFVMKAHSFVRENVPRVLNSAKEKSSTVPIPTVNQYLYFLFAPTLIYRDSYPRNPTVRWGYVAMKFAQVFGCFFYVYYIFERLCAPLFRNIKQEPFSARVLVLCVFNSILPGVLILFLTFFAFLHCWLNAFAEMLRFGDRMFYKDWWNSTSYSNYYRTWNVVVHDWLYYYAYKDFLWFFSKRFKSAAMLAVFAVSAVVHEYALAVCLSFFYPVLFVLFMFFGMAFNFIVNDSRKKPIWNVLMWTSLFLGNGVLLCFYSQEWYARQHCPLKNPTFLDYVRPRSWTCRYVF
B2: human SOAT1-dimer (66-550), purified, tags removed (domain or fragment, UniProt P35610 66-550, looked up)
chain: MKEVGSHFDDFVTNLIEKSASLDNGGCALTTFSVLEGEKNNHRAKDLRAPPEQGKIFIARRSLLDELLEVDHIRTIYHMFIALLILFILSTLVVDYIDEGRLVLEFSLLSYAFGKFPTVVWTWWIMFLSTFSVPYFLFQHWATGYSKSSHPLIRSLFHGFLFMIFQIGVLGFGPTYVVLAYTLPPASRFIIIFEQIRFVMKAHSFVRENVPRVLNSAKEKSSTVPIPTVNQYLYFLFAPTLIYRDSYPRNPTVRWGYVAMKFAQVFGCFFYVYYIFERLCAPLFRNIKQEPFSARVLVLCVFNSILPGVLILFLTFFAFLHCWLNAFAEMLRFGDRMFYKDWWNSTSYSNYYRTWNVVVHDWLYYYAYKDFLWFFSKRFKSAAMLAVFAVSAVVHEYALAVCLSFFYPVLFVLFMFFGMAFNFIVNDSRKKPIWNVLMWTSLFLGNGVLLCFYSQEWYARQHCPLKNPTFLDYVRPRSWTCRYVF

Legend:
cryo-EM structure [1] = biological target: the molecule itself; experiment: cryo-EM structure
cryo-EM structure [2] = biological target: the molecule itself; experiment: cryo-EM structure; remark: listed apart in the source

Protein	stoichiometry N (cryo-EM structure [1])	stoichiometry N (cryo-EM structure [2])
B1	4	
B2		2
